According to article PMC11851464, “Development of a Spectrophotometric Assay for the Cysteine Desulfurase from Staphylococcus aureus” (Antibiotics, 2025):

B1: cysteine desulfurase SufS (BsSufS) (Bacillus subtilis subsp. subtilis str. 168) (protein)
chain: MNITDIREQFPILHQQVNGHDLVYLDSAATSQKPRAVIETLDKYYNQYNSNVHRGVHTLGTRATDGYEGAREKVRKFINAKSMAEIIFTKGTTTSLNMVALSYARANLKPGDEVVITYMEHHANIIPWQQAVKATGATLKYIPLQEDGTISLEDVRETVTSNTKIVAVSHVSNVLGTVNPIKEMAKIAHDNGAVIVVDGAQSTPHMKIDVQDLDCDFFALSSHKMCGPTGVGVLYGKKALLENMEPAEFGGEMIDFVGLYESTWKELPWKFEAGTPIIAGAIGLGAAIDFLEEIGLDEISRHEHKLAAYALERFRQLDGVTVYGPEERAGLVTFNLDDVHPHDVATVLDAEGIAVRAGHHCAQPLMKWLDVTATARASFYLYNTEEEIDKLVEALQKTKEYFTNVF
B2: cysteine desulfurase SufS (SaSufS) (Staphylococcus aureus subsp. aureus USA300) (protein)
chain: MAEHSFDVNEVIKDFPILDQKVNGKRLAYLDSTATSQTPVQVLNVLEDYYKRYNSNVHRGVHTLGSLATDGYENARETVRRFINAKYFEEIIFTRGTTASINLVAHSYGDANVEEGDEIVVTEMEHHANIVPWQQLAKRKNATLKFIPMTADGELNIEDIKQTINDKTKIVAIAHISNVLGTINDVKTIAEIAHQHGAIISVDGAQAAPHMKLDMQEMNADFYSFSGHKMLGPTGIGVLFGKRELLQKMEPIEFGGDMIDFVSKYDATWADLPTKFEAGTPLIAQAIGLAEAIRYLERIGFDAIHKYEQELTIYAYEQMSAIEGIEIYGPPKDRRAGVITFNLQDVHPHDVATAVDTEGVAVRAGHHCAQPLMKWLNVSSTARASFYIYNTKEDVDQLINALKQTKEFFSYEF

Columns and labels:
[1] = substrate: N[C@@H](CS)C(=O)O; experiment: Michaelis–Menten kinetics, Ala-NDA assay; type: biochemical, Bacillus subtilis; conditions: pyridoxal-5′-phosphate (PLP)
purified protein = substrate: N[C@@H](CS)C(=O)O; experiment: purified protein; type: biochemical, Staphylococcus aureus; conditions: pyridoxal-5′-phosphate (PLP) Cys displaces Lys250 and binds PLP to form Cys-aldimine; catalytic Cys389

Protein	Km [1]	kcat [1]	kcat/Km [1]	Km (purified protein)	kcat (purified protein)	kcat/Km (purified protein)
B1	440 ± 190 µM	0.0817 ± 0.0117 s⁻¹	185 ± 107 M⁻¹ s⁻¹	–	–	–
B2	–	–	–	600 ± 170 µM	0.0683 ± 0.00833 s⁻¹	113 ± 45 M⁻¹ s⁻¹
